Data: PMC12346298, “Structures of MmpL complexes reveal the assembly and mechanism of this family of transporters” (Science Advances, 2025)

Legend:
[1] = biological target: mycobacterial membrane protein large 5 (MmpL5) transporter, M. smegmatis (M. smegmatis) (UniProt A0QS80); assay: cryo-EM structure; particle class 2 (tripartite trimeric AcpM-MmpL5-MmpS5 complex) from the same LMNG-solubilized crude membrane sample; Build and Retrieve processing; 2.81 Å
[2] = biological target: mycobacterial membrane protein large 5 (MmpL5) transporter, M. smegmatis (M. smegmatis) (UniProt A0QS80); assay: cryo-EM structure; particle class 3 (dipartite trimeric AcpM-MmpL5 complex) from the same LMNG-solubilized crude membrane sample; Build and Retrieve processing; 3.37 Å
[3] = biological target: T1, mycobacterial membrane protein large 5 (MmpL5) transporter, M. smegmatis (M. smegmatis, UniProt A0QS80 1-967); assay: cryo-EM structure; particle class 2 (tripartite trimeric AcpM-MmpL5-MmpS5 complex) from the same LMNG-solubilized crude membrane sample; Build and Retrieve processing; 2.81 Å; details: partners not purified
T1 construct: MmpL5 of Mycobacterium smegmatis, gene MSMEG_1382 cloned into pBUN250; 12 TM helices, periplasmic subdomains PD1-PD3 (PD3 = residues 499-684); Seen as a monomer (in 2D arrays) and as a homotrimer in different particle classes of one sample; Residues 493-702 are not modelled in 9MX0, residues 499-655 not in 9MW0; also called MSMEG_1382; source: M. smegmatis MC2-155, coexpressed with MmpS5 from …
T1 sequence (looked up): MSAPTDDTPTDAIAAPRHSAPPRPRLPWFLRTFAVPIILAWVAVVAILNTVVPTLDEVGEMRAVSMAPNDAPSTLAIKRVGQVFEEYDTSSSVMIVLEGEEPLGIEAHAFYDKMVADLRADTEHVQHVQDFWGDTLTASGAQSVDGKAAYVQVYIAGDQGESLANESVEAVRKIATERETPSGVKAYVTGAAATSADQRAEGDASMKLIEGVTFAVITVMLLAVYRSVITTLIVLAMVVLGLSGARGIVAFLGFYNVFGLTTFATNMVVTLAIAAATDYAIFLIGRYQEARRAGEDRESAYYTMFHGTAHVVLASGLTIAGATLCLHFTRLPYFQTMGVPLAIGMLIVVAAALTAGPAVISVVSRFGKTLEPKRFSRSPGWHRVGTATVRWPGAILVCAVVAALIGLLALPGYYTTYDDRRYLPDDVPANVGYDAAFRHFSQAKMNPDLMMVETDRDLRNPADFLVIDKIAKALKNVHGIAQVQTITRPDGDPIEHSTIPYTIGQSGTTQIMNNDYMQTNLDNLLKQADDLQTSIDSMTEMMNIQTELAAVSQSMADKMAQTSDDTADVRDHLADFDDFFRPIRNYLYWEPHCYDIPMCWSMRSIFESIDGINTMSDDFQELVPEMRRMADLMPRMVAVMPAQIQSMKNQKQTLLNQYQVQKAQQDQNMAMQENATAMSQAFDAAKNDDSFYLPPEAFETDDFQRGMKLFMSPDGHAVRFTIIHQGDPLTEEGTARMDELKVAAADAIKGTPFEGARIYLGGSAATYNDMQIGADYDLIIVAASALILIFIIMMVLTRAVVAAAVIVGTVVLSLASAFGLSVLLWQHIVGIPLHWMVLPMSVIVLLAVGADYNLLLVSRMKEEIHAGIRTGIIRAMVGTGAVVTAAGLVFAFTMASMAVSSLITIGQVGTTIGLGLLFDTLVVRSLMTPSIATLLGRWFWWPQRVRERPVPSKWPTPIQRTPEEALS

[4] = biological target: T1, mycobacterial membrane protein large 5 …; assay: cryo-EM structure; particle class 1 (2D arrays of monomeric AcpM-MmpL5 units) from LMNG-solubilized crude M. smegmatis membranes enriched by sucrose cushion; Build and Retrieve processing; 3.35 Å; details: partners not purified

MmpS5 adaptor protein, M. smegmatis (natural protein)
stoichiometry N (MmpS5:MmpL5 (3:3)) [1]: 1

mycobacterial membrane protein large 5 (MmpL5) transporter, M. smegmatis (from UniProt A0QS80 1-967) (natural protein)
stoichiometry N [2]: 3
stoichiometry N [1]: 3

B1: meromycolate extension acyl carrier protein M (AcpM), M. smegmatis (natural protein, UniProt A0R0B3 1-99, looked up)
chain: MAATQEEIIAGLAEIIEEVTGIEPSEVTPEKSFVDDLDIDSLSMVEIAVQTEDKYGVKIPDEDLAGLRTVGDVVAYIQKLEEENPEAAAALREKFAADQ
notes: AcpM, cytosolic meromycolate extension acyl carrier protein of Mycobacterium smegmatis, not overexpressed; identified in the cryo-EM maps and by proteomics; four-helix bundle, 82 C-alpha atoms compared; Came with MmpL5 from the host cells; source: endogenous, M. smegmatis MC2-155; detergent-solubilized (LMNG) crude membranes, enriched by sucrose cushion centrifugation
stoichiometry N [3]: 1 AcpM:MmpL5 (3:3)
stoichiometry N [4]: 1 AcpM:MmpL5 (1:1)
